Laboratory results taken from US20180079807A1 (Genentech, published 2018).

Target: T1, IL-17AA homodimer (human, UniProt Q16552 24-155)
T1 construct: also called IL-17A homodimer
T1 sequence: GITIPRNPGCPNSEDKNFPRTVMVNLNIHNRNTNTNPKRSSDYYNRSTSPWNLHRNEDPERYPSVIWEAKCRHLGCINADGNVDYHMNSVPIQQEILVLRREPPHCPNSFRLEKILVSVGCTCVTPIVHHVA
Assay: ELISA, plate coated with IL-17AA; reference of the relative-potency calculation

B1: anti-IL-17A/F antibody MCAF5352A, Reference Material (composition comprising 2% of the glycosylation variant) (antibody, human IgG1, kappa, V domains shown)
VH: EVQLVESGGGLVQPGRSLRLSCAASGFTFDDYAMHWVRQAPGKGLEWVSGINWSSGGIGYADSVKGRFTISRDNAKNSLYLQMNSLRAEDTALYYCARDIGGFGEFYWNFGLWGRGTLVTVSS
VL: not shown
notes: Produced in CHO cells; Predominantly the main species, which is not glycosylated in the variable region, with about 2% Peak 1; also called antibody standard; sample with 2% glycosylation variants
binding result: binds
